The labels stand for the following.
B1: Cyclin-D1-binding protein 1 (Homo sapiens), O95273 (parent)
chain: MASATAPAAAVPTLASPLEQLRHLAEELRLLLPRVRVGEAQETTEEFNREMFWRRLNEAAVTVSREATTLTIVFSQLPLPSPQETQKFCEQVHAAIKAFIAVYYLLPKDQGITLRKLVRGATLDIVDGMAQLMEVLSVTPTQSPENNDLISYNSVWVACQQMPQIPRDNKAAALLMLTKNVDFVKDAHEEMEQAVEECDPYSGLLNDTEENNSDNHNHEDDVLGFPSNQDLYWSEDDQELIIPCLALVRASKACLKKIRMLVAENGKKDQVAQLDDIVDISDEISPSVDDLALSIYPPMCHLTVRINSAKLVSVLKKALEITKASHVTPQPEDSWIPLLINAIDHCMNRIKELTQSELEL
B2: Cyclin-D1-binding protein 1 (Homo sapiens), O95273 (parent)
chain: B1 chain
partner: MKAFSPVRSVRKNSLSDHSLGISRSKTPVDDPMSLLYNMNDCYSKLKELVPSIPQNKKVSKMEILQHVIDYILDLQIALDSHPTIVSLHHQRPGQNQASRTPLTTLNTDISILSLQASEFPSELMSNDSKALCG

The source of these data is IntAct's records for PubMed 22453338.

In the first test the parent is B1. As to conditions: with ndf1_mouse Neurod1, Q60867.
ndf1_mouse Neurod1, Q60867, sequence (Q60867 whole entry): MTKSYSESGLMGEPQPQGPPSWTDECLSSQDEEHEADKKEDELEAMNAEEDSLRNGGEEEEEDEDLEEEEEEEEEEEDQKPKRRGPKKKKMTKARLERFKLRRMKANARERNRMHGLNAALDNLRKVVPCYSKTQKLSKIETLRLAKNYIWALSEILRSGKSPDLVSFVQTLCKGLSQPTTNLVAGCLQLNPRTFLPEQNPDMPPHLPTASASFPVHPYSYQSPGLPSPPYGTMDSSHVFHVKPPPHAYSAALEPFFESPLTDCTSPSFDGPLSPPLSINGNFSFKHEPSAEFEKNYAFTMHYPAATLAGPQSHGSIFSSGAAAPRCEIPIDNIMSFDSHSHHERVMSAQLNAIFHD
Consider P166Y, for which the “effect of a mutation on the interaction” value was “increasing interaction”.

Another test covers variants of B1. As to conditions: with ndf1_mouse Neurod1, Q60867. The source holds these as a separate data set.
For V278R, the “effect of a mutation on the interaction” value is listed as “increasing interaction”.

In the next test the parent is B1. As to conditions: with ndf1_mouse Neurod1, Q60867. The source holds these as a separate data set.
Regarding N169E, the “effect of a mutation on the interaction” value is recorded as “increasing interaction”.

The next test covers variants of B1. Particulars: with ndf1_mouse Neurod1, Q60867. This is another data set of the same source.
Consider V271F, for which the “effect of a mutation on the interaction” value was “increasing interaction”.

The variants in another test derive from B2. Particulars: with id2_human ID2, Q02363.
For P166Y, the “effect of a mutation on the interaction” value is listed as “increasing interaction”.

The variants in another test derive from B2. Particulars: with id2_human ID2, Q02363. This is another data set of the same source.
On to V278R, for which the “effect of a mutation on the interaction” value was “increasing interaction”.

The variants in another test derive from B2. As to conditions: with id2_human ID2, Q02363. This is another data set of the same source.
With N169E, the “effect of a mutation on the interaction” value is reported as “increasing interaction”.

Variants of B2 are the subject of a further test. As to conditions: with id2_human ID2, Q02363. This is another data set of the same source.
Take V271F: the “effect of a mutation on the interaction” value is given as “increasing interaction”.
